T1: Mvp1 (Saccharomyces cerevisiae, UniProt P40959)
T1 construct: full-length, codons 1-511; E. coli; N-terminal His6-thrombin fusion or C-terminal MBP fusion cut off with PreScission; tetramer
T1 sequence (P40959 1-511): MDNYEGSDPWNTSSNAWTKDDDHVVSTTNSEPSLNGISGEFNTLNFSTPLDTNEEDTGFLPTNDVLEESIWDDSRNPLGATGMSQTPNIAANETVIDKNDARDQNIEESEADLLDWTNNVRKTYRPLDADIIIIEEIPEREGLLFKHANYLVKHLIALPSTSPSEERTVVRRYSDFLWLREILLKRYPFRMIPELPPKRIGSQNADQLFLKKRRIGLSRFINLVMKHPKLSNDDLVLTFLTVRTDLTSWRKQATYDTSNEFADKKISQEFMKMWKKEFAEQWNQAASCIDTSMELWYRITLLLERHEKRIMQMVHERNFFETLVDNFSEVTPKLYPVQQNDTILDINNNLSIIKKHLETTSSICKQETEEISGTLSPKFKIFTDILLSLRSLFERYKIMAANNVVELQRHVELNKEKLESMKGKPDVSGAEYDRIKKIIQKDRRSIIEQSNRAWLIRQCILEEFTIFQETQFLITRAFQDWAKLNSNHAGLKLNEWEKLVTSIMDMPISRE


How the values were obtained:
Mvp1 = target: T1, Mvp1; assay: liposome sedimentation, SDS-PAGE; assay type: binding; settings: 5% PI3P in 95% DOPS liposomes (100 nm, 0.1 mg/ml); 1.2 µM protein; 20 mM Tris pH 7.5, 250 mM NaCl; 21 °C; DOPS-only liposomes as control
[1] = target: Mvp1 with an engineered PreScission site after residue 99, after cleavage (N-terminal sequence removed) (S. cerevisiae) (UniProt P40959); assay: SEC-MALS; Superdex 200 10/300 GL, 20 mM TRIS/Cl pH 7.4, 250 mM NaCl unless stated (full-length Mvp1 also at 50 and 150 mM NaCl), 1.93 mM beta-mercaptoethanol; 500 ul of 20-21.2 uM protein injected (14 uM for Mvp1 Δ2-78); 0.3 ml/min
[2] = target: the molecule itself; assay: as above
[3] = target: the molecule itself; assay: cryo-EM structure; 2d and 3d classification of single particles of Mvp1 Mut1, ~5 uM protein, intermediate resolution (~7.7-8.2 Å)

Row | Molecule | stoichiometry N [2] | other results
1 | CCCCCCCC/C=C\CCCCCCCC(=O)OC[C@H](COP(=O)(O)O[C@@H]1[C@H](O)[C@H](OP(=O)(O)O)[C@@H](O)[C@H](O)[C@H]1O)OC(=O)CCCCCCC/C=C\CCCCCCCC [PI3P] |  | liposome sedimentation, SDS-PAGE (Mvp1): purified Mvp1, like SNX8 and several other SNX–BARs, bound to liposomes containing PI3P
2 | Mvp1 with an engineered PreScission site after residue 99, after cleavage (N-terminal sequence removed) (from UniProt P40959 100-511) (domain or fragment) |  | stoichiometry N [1]: 2
3 | Full-length Mvp1 (codons 1-511) (natural protein, S. cerevisiae, UniProt P40959 1-511, looked up, Mvp1, S. cerevisiae sorting nexin with PX and BAR domains, codons 1-511, amplified from genomic DNA of W303A/alpha diploids; Two purification strategies: N-terminal His6 fusion with thrombin site (no cleavage described) or C-terminal MBP fusion cleaved with PreScission; also called wild type; SNX-BAR Mvp1; source: E. coli BL21-Codon Plus(DE3)-RIPL, purified (Ni-IDA or amylose resin, anion …)) MDNYEGSDPWNTSSNAWTKDDDHVVSTTNSEPSLNGISGEFNTLNFSTPLDTNEEDTGFLPTNDVLEESIWDDSRNPLGATGMSQTPNIAANETVIDKNDARDQNIEESEADLLDWTNNVRKTYRPLDADIIIIEEIPEREGLLFKHANYLVKHLIALPSTSPSEERTVVRRYSDFLWLREILLKRYPFRMIPELPPKRIGSQNADQLFLKKRRIGLSRFINLVMKHPKLSNDDLVLTFLTVRTDLTSWRKQATYDTSNEFADKKISQEFMKMWKKEFAEQWNQAASCIDTSMELWYRITLLLERHEKRIMQMVHERNFFETLVDNFSEVTPKLYPVQQNDTILDINNNLSIIKKHLETTSSICKQETEEISGTLSPKFKIFTDILLSLRSLFERYKIMAANNVVELQRHVELNKEKLESMKGKPDVSGAEYDRIKKIIQKDRRSIIEQSNRAWLIRQCILEEFTIFQETQFLITRAFQDWAKLNSNHAGLKLNEWEKLVTSIMDMPISRE | 4 | 
4 | Mvp1 198KRI→AAA (natural protein, S. cerevisiae, UniProt P40959 1-511, looked up, Mvp1, S. cerevisiae, codons 1-511 with residues 198-200 KRI changed to AAA in the PX PPII loop; also called Mut1; Mvp1 Mut1; source: E. coli BL21-Codon Plus(DE3)-RIPL, purified; not shown: His6 (pET-15b construct); MBP (pMW-variant construct; alternative to the His6 construct), C-terminal, cleaved) MDNYEGSDPWNTSSNAWTKDDDHVVSTTNSEPSLNGISGEFNTLNFSTPLDTNEEDTGFLPTNDVLEESIWDDSRNPLGATGMSQTPNIAANETVIDKNDARDQNIEESEADLLDWTNNVRKTYRPLDADIIIIEEIPEREGLLFKHANYLVKHLIALPSTSPSEERTVVRRYSDFLWLREILLKRYPFRMIPELPPAAAGSQNADQLFLKKRRIGLSRFINLVMKHPKLSNDDLVLTFLTVRTDLTSWRKQATYDTSNEFADKKISQEFMKMWKKEFAEQWNQAASCIDTSMELWYRITLLLERHEKRIMQMVHERNFFETLVDNFSEVTPKLYPVQQNDTILDINNNLSIIKKHLETTSSICKQETEEISGTLSPKFKIFTDILLSLRSLFERYKIMAANNVVELQRHVELNKEKLESMKGKPDVSGAEYDRIKKIIQKDRRSIIEQSNRAWLIRQCILEEFTIFQETQFLITRAFQDWAKLNSNHAGLKLNEWEKLVTSIMDMPISRE |  | stoichiometry N [3]: 2
5 | Mvp1 Δ2-78 (domain or fragment, S. cerevisiae, UniProt P40959 1-511, looked up, source: E. coli BL21-Codon Plus(DE3)-RIPL, purified; not shown: His6 (pET-15b construct); MBP (pMW-variant construct; alternative to the His6 construct), C-terminal, cleaved) MGATGMSQTPNIAANETVIDKNDARDQNIEESEADLLDWTNNVRKTYRPLDADIIIIEEIPEREGLLFKHANYLVKHLIALPSTSPSEERTVVRRYSDFLWLREILLKRYPFRMIPELPPKRIGSQNADQLFLKKRRIGLSRFINLVMKHPKLSNDDLVLTFLTVRTDLTSWRKQATYDTSNEFADKKISQEFMKMWKKEFAEQWNQAASCIDTSMELWYRITLLLERHEKRIMQMVHERNFFETLVDNFSEVTPKLYPVQQNDTILDINNNLSIIKKHLETTSSICKQETEEISGTLSPKFKIFTDILLSLRSLFERYKIMAANNVVELQRHVELNKEKLESMKGKPDVSGAEYDRIKKIIQKDRRSIIEQSNRAWLIRQCILEEFTIFQETQFLITRAFQDWAKLNSNHAGLKLNEWEKLVTSIMDMPISRE | 2 | 
6 | Mvp1 Δ2-100 (domain or fragment, S. cerevisiae, UniProt P40959 1-511, looked up, Mvp1, S. cerevisiae, codons 1-511 lacking residues 2-100; The purification told for this construct is that of the C-terminal MBP fusion, cleaved with PreScission; residues of the cleavage site probably remain at the C-terminus (surmised); also called Mvp1 lacking its N-terminus; source: E. coli BL21-Codon Plus(DE3)-RIPL, purified (amylose resin, anion exchange, SEC, PreScission cleavage, Superdex …)) MARDQNIEESEADLLDWTNNVRKTYRPLDADIIIIEEIPEREGLLFKHANYLVKHLIALPSTSPSEERTVVRRYSDFLWLREILLKRYPFRMIPELPPKRIGSQNADQLFLKKRRIGLSRFINLVMKHPKLSNDDLVLTFLTVRTDLTSWRKQATYDTSNEFADKKISQEFMKMWKKEFAEQWNQAASCIDTSMELWYRITLLLERHEKRIMQMVHERNFFETLVDNFSEVTPKLYPVQQNDTILDINNNLSIIKKHLETTSSICKQETEEISGTLSPKFKIFTDILLSLRSLFERYKIMAANNVVELQRHVELNKEKLESMKGKPDVSGAEYDRIKKIIQKDRRSIIEQSNRAWLIRQCILEEFTIFQETQFLITRAFQDWAKLNSNHAGLKLNEWEKLVTSIMDMPISRE | 2 | 

— PMC7083883, “The cryo-EM structure of the SNX–BAR Mvp1 tetramer” (Nature Communications, 2020)
